According to the supplement of paper PMC12042874:
± gives the uncertainty stated by the source.

experiment: amyloid nucleation score (Sup35N fusion, yeast selection) (log enrichment); library NNK3; higher = more nucleation; inactive = no reads after selection
Procedure, shortened: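 In psi-negative yeast, Sup35N fusions carrying peptides of 20 random codons were induced with 100 μM copper sulfate for 24 hours. The cells then grew 7 days at 30°C on medium lacking adenine and uracil, and plasmid inserts from input and output were Illumina-sequenced, excluding sequences with under 100 input reads. Nucleation score is the DiMSum log enrichment of output over input reads, centred on the mode score of non-aggregating sequences.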

Substance	amyloid nucleation score
YEFATNAQESS	inactive
YELMIFVTELALLDEILPEQ	inactive
YEPSNCKLVSMYVFCRLKLA	-0.574 ± 1
YEQHSY	inactive
YETSVH	inactive
YETYSCEFFVYRLFCLNRSH	inactive
YEWSYCFNYLCHHYDTNWQR	2.96 ± 0.056
YFFTHDFHVVLNFANCIWYL	2.99 ± 0.069
YFFVHEKCQVGGRGGKLAKK	inactive
YFFWDLEILMHPFFQTVRNK	inactive
YFISWSFHGFVTSPGFWSGC	1.41 ± 0.15
YFLGWRYQCDIVIFWYQLRV	inactive
YFLRVNGSCANIDDHGLFSW	inactive
YFLSN	inactive
YFNLITAYKVLSAHGRTLWR	inactive
YFQLLVSLVSVFH	inactive
YFRNHSRVDDLDGGRRDVFR	inactive
YFRQFSVYYLFFNLMYILHA	inactive
YFRVAFCTHGFIMARCAFSS	inactive
YFRYIWEHMLVYGRVAKDDP	inactive
YFSRLTYCSRNSSCWILYCF	inactive
YFSWLSLHVFVSGFVRIVCR	inactive
YFVYEG	inactive
YFYFDFNYNMYGVKALLVLC	inactive

Substance	amyloid nucleation score
YGCFVPY	inactive
YGEFDTLQW	inactive
YGMWHHYFGDLTLSSRLNHV	inactive
YGNHFSNNDGSIFER	inactive
YGPSLQNSWDPFPRASSPVI	inactive
YGRRKYSWAVWICKHIGAYG	inactive
YGSIRLNMYWFVCVCTISWI	0.661 ± 0.13
YGSSHYPYNSY	inactive
YGTNQMTLPKCRYWGFYREE	-0.149 ± 0.7
YGVWCSYKFVYSCDPYDSAG	0.557 ± 0.15
YGWIDRS	inactive
YHWSGRLL	inactive
YIAVMILLCHVKHEMSLLII	2.71 ± 0.055
YIFFMDLNYLSSNSITVRAV	1.53 ± 0.074
YIFVALYPSHT	0.443 ± 0.28
YIILCSIFSYWENMGHI	2.78 ± 0.08
YIKCKFF	inactive
YILGKSKSPFLLKCAVKI	inactive
YILMDFSYADLSFVLEIFFA	0.09 ± 0.64
YINQWCTCVT	inactive
YINRKLRDACRRYVFGW	0.05 ± 0.89
YIRATCDSLCVISVWVLRFL	inactive
YISLT	inactive
YIVLAPCWCHIGSIDLAVPH	3.01 ± 0.06

Substance	amyloid nucleation score
YIVLMSLLFGM	inactive
YKGKWLFCRQMSCEHFFGFF	inactive
YKIMTLYTSCKRFEVHRGCT	inactive
YKRLVSLNVEWALRK	inactive
YLFHLLSDRRCEDMCVVGIK	inactive
YLFHSEGHWRDPHSLPSYLT	inactive
YLGGFLWVWKQFSSCRLVQY	-0.057 ± 0.78
YLGVSILVSSYYWVRVGTGR	inactive
YLHAEYRMCKLIFKMEEFRD	0.276 ± 0.46
YLHYRHYSSVCFYFSSNISN	inactive
YLIMSVSYSASTCLIKMAMV	inactive
YLLDLTTVCAGPWRIPQLMK	inactive
YLLHK	inactive
YLLKCYVMSDRSMSTCVQLE	inactive
YLLNVVYGKEVHMASDFLYG	inactive
YLLVHLAKCIFNWHLSSIEM	-0.109 ± 0.78
YLNSDYSMKFTRWY	1.1 ± 0.12
YLPAHIYMK	inactive
YLRAAIL	inactive
YLSEPGNYRVSNVIGCNRID	inactive
YLSGS	inactive
YLTMLWLFHLRERAALMGLN	inactive
YLVSIRNNYRCEV	inactive
YLWFWQFNTRLGVRRIFWTR	inactive

Substance	amyloid nucleation score
YLWTTLCKPRVDFRAEYRDL	2.05 ± 0.058
YLYFV	inactive
YMFRFGSTDCEAYV	inactive
YMGILCMGLLNSKW	-0.606 ± 0.76
YMMGKISSPGNLMTMFAVDG	inactive
YMNSVACSEMFSFSGLWEWW	inactive
YMSSYRKEDCGQWLDEWPMA	inactive
YMTGLD	inactive
YMVVFSVNDRMFVPFY	0.926 ± 0.15
YMWKVVDCSPVVSTS	-0.352 ± 1.3
YNDCNIN	inactive
YNDDKYCFDMNCMSPRYRGD	-0.191 ± 0.4
YNDKGTV	inactive
YNFTSFLLIAGNAGSSSSRK	2.04 ± 0.073
YNGLGMIVPMFLVHPLK	inactive
YNLSRHQRTSTSLRCKGQSF	0.241 ± 0.44
YNMSDTVRYHMSQVADCYIV	inactive
YNRMHMDCTKRIE	inactive
YNRYV	inactive
YNSFSDYYSVFTQHVRDS	inactive
YNSIMFNGW	inactive
YNVIT	inactive
YNWIC	inactive
YPCNFYWFRNILADTPIQYD	inactive

Substance	amyloid nucleation score
YPSCRTSLSARHMVFQGITL	inactive
YPSSPGH	inactive
YQCTKMRLVSFRTVVLVLRG	0.04 ± 0.8
YQLELSSGSM	0.116 ± 0.28
YQLFRFWDVRDSNHSKKIMQ	inactive
YQMTNCSLFFTTLYSVNYDY	2.81 ± 0.082
YRAKNSDRCPGDAYTYFVLR	inactive
YRCDVFFLSVVVDSNFIDKL	2.83 ± 0.079
YRCFLNFIEMIDTCAGDLES	inactive
YRCSRNVENYGPSKRGYYTE	inactive
YRFGDILSVRSLQNFT	inactive
YRIVVVMMAIISTNDNIP	0.371 ± 0.26
YRKMRAEEDKWMVWVYSRRC	inactive
YRKNLRHSLCRNWLYMDCHV	inactive
YRWAFRWRLG	inactive
YRWQLRKKALFFFGKFSVHY	inactive
YRYHIMVMKAVIDTNSRKGW	inactive
YSCFVRHCVDRFVRNDSDQT	inactive
YSCVWNGKWCYYSTANDLS	inactive
YSFECMSH	inactive
YSFLGRNSIISCIR	inactive
YSFRCPGFNYYL	inactive
YSGDSWYVLYVGNPPGDYWR	1.66 ± 0.09
YSGKNLVRSTAGGAVKPVC	inactive

Substance	amyloid nucleation score
YSGTRVPR	0.471 ± 0.29
YSHWMVRAA	-0.145 ± 0.81
YSIISSYTFEFSKFAVLALL	inactive
YSLGITGPHEAHQIVNLPWW	inactive
YSLLSSMPLIRRRLGLYESW	inactive
YSMQGYRCMYLGDNVAVLAF	inactive
YSNSLRRTSPQEHS	inactive
YSRSTSSEMEAERGSAWLES	inactive
YSSSRLI	inactive
YSVIYDRSYRIV	inactive
YSVPCSWWTLQLGILPLSRR	inactive
YSVVNDSGIFFYVGHHVFAV	inactive
YTDIVSAIEEVF	inactive
YTGYWTGLYYVFMEINGWGS	inactive
YTLYLGCGTNDVWVDAYLYS	inactive
YTRISTIFGYSAMVQFMPCQ	inactive
YTRSCSMRLF	inactive
YVCSDSMLEARVREGTEYRS	-0.259 ± 0.98
YVDLQPITREADDLRALTFM	inactive
YVEHAYIRWRSVCKSIFLFS	inactive
YVGYRFSHFSSGKRSCSYL	inactive
YVHFAN	inactive
YVIMAFLAV	inactive
YVKIDSRFHGVSHFRFHTAY	inactive

Substance	amyloid nucleation score
YVLSATG	inactive
YVPFNFMKHVIATVLSGV	0.014 ± 0.77
YVRDLGSWMT	inactive
YVTTMFEITRGRSWYSRSLG	0.611 ± 0.21
YVVEICAV	inactive
YVVVCSCAWS	2.63 ± 0.074
YVWMVSYMFLDFLDSTLALP	inactive
YVYESFGWVSGNFKVWF	inactive
YWDDSMKYDLKMVERSVGGK	inactive
YWGKRSF	inactive
YWKFWIKSDVYCRSISGWCR	inactive
YWNIMIGYLLKSTGSGRSA	inactive
YWSCRWGLVLVS	inactive
YWTANTDYTNVIGYKNTYVH	-0.337 ± 0.33
YWYYGCGSVGFAIRPWMSGI	1.58 ± 0.11
YYFLDRGGITSTIFRLLCPF	inactive
YYFLLIGSW	inactive
YYGGVLVSHRKPSGVCYGYG	inactive
